In patent US20180265572A1 (Bristol-Myers Squibb, published 2018):

What was measured:
[1] = target: VEGFR2 fusion protein on Ba/F3 cells (extracellular domain of hVEGFR2 and intracellular domain of hEpoR) (human, UniProt P35968 20-764; P19235 274-508, limits assumed); assay: cell-based or functional assay
human IGF-IR on cells [2] = target: T1, human IGF-IR on cells (human, UniProt P08069 31-1367); assay: cell-based or functional assay
human IGF-IR-Fc fusion [3] = target: T2, human IGF-IR-Fc fusion (human, UniProt P08069 31-932); assay: SPR (Biacore), IGF-IR-Fc captured on Protein A/G, HTPP purified binder in solution, n=1, KD approximate
T2 construct: range 1-932; If it counts on the precursor, it includes the signal peptide; also called IGF1R-Fc; not shown: hinge and constant regions of human IgG

VEGFR2-Fc (R&D Systems) [4] = target: T3, VEGFR2-Fc (R&D Systems) (UniProt P35968 20-764); assay: SPR (Biacore), VEGFR2-Fc immobilised directly on a CM5 chip, binder in solution; V2B domain; VEGFR2-Fc; average
T3 construct: Bought reagent; not shown: Fc part of the bought fusion; not described
Procedure: (§1) A concentration series of the midscale purification of the tandem construct 385A08-Fn-V2B (non pegylated, his-tagged version, SEQ ID NO: 8) was also evaluated. The functionality of each of the domains of this construct, specifically, the V2B domain, and the IGF-IR domain, was evaluated as described in the materials and methods section below.
(§2) The functionality of the V2B domain was assessed by evaluating a concentration series of the midscale and large scale purification of the tandem construct 385A08-Fn-V2B (pegylated, and non-pegylated versions, his-tag and non-his-tag versions) vs. VEGFR2-Fc that was directly immobilized on a CM5 chip surface (GE, Piscataway, N.J.). VEGFR2-Fc (R&D Systems, MN) was diluted to 12 ug/mL in 50 mM Acetate pH 5.0 for an immobilization level of ˜1300 RU. Varying concentrations of 385A08-Fn-V2B in the solution phase were monitored for association (2 minutes) and dissociation (10 minutes) kinetics at a flow rate of 50 uL/min. Two 30 second injections of 50 mM glycine pH 1.7 were used to regenerate the surface.

VEGFR2-Fc (R&D Systems) [5] = target: T3, VEGFR2-Fc (R&D Systems); assay: SPR (Biacore), VEGFR2-Fc immobilised directly on a CM5 chip, binder in solution; V2B domain; VEGFR2-Fc
Procedure: as §2

human IGF-IR-Fc fusion [6] = target: T2, human IGF-IR-Fc fusion; assay: SPR (Biacore), IGF-IR-Fc captured on anti-human IgG, binder in solution (n of 1); IGF-IR domain; IGF-IR-Fc; n of 1
Procedure: as §1
Another method to assess the functionality of the IGF-IR domain is to capture the IGF—IR-Fc on anti-human IgG (GE, Piscataway, N.J.). This was done for the midscale purified construct 385A08-Fn-V2B (non-pegylated, his-tag) as described in Example 5 above. The anti-human IgG was immobilized on flow cells 1 and 2 of a CM5 chip surface according the manufacturer's instructions. 100 nM human IGF—IR-Fc was injected for 2 minutes at 10 ul/min on flow cell 2. Subsequently a concentration series of the midscale prep was injected across both flow cell surfaces at 50 uL/min. Two injections of 50 mM Glycine pH 1.7 were used to regenerate the surface.

human IGF-IR on cells [7] = target: T1, human IGF-IR on cells; assay: cell-based or functional assay; remark: listed apart in the source
human IGF-IR on cells [8] = target: T1, human IGF-IR on cells; assay: competitive blocking assay on R+ cells overexpressing human IGF-IR; competitor 200 nM IRDye 800CW-labelled AT580-PEG20-AT580
Procedure: Certain tandem constructs were evaluated for their ability to compete with mono-specific IGF-IR and VEGFR-2 binders in vitro.
R⁺, a gift from Renato Baserga (Thomas Jefferson University, Philadelphia, Pa.), is a mouse embryo fibroblast overexpressing human IGF-IR in the context of a deletion in the mouse IGF-IR gene. Cells were plated in 96 well plates at a concentration of 20,000 cells per well in DMEM (Invitrogen, Carlsbad, Calif.) containing 5% calf serum (Hyclone, Logan, Utah). The following day, cells were washed twice in serum free DMEM containing 0.1% BSA (Invitrogen, Carlsbad, Calif.). After the washes, the cells were incubated at 4° C. for 10 minutes in binding buffer (serum free DMEM+0.1% BSA) containing increasing concentrations of IGF-IR antagonists or controls. Typical controls included the mono-specific ¹⁰Fn3-based IGF-IR binder (AT580-PEG40, SEQ ID NO: 27) (positive control) or the mono-specific ¹⁰Fn3-based VEGFR2 binder (Peg-V2Bshort, SEQ ID NO: 28) (negative control). Following this brief exposure to antagonists, R⁺ cells were additionally exposed to 200 nM of a bi-valent ¹⁰Fn3-based IGF-IR binder (AT580-PEG20-AT580, SEQ ID NO: 27) labeled with IRDye 800CW according to the manufacturer instructions (Li-Cor Biosciences, Lincoln, Nebr.). […] The resulting data was analyzed using GraphPad Prism (GraphPad Software, La Jolla, Calif.).

human IGF-IR-Fc fusion [9] = target: T2, human IGF-IR-Fc fusion; assay: SPR (Biacore), binding to IGF-IR-Fc, n=1
VEGFR2-Fc (R&D Systems) [10] = target: T3, VEGFR2-Fc (R&D Systems); assay: SPR (Biacore T100), VEGFR2-Fc immobilised directly on a CM5 chip; average over constructs; average over midscale and large scale material, with and without his tag; VEGFR2-Fc
Procedure: (§3) Affinity data was also measured from midscale and large scale material, for the pegylated version of the tandem construct 385A08-Fn-V2B-cys (SEQ ID NO: 9, with and without his tag). The specific materials and methods for these calculations are described below.
(§4) An alternative method is to capture the IGF—IR-Fc on Protein A. This method was used for calculating the affinity and kinetics of certain versions of the construct 385A08-Fn-V2B-cys (both pegylated and non-pegylated and with or without his tag) from midscale and large scale materials. Specifically, IGF—IR-Fc was captured on Protein A immobilized on a Biacore CM5 sensor chip by amine coupling. VEGFR2-Fc was immobilized directly on a CM5 chip by amine coupling. […] Sensorgrams were obtained at each concentration and were evaluated using Biacore T100 evaluation software to determine the rate constants kₐ (kₒₙ) and kd (koff).
as §2, with “VEGFR2-Fc (R&D Systems, MN) was diluted to 12 ug/mL in 50 mM Acetate pH 5.0 for an immobilization level of ˜1300 RU.” left out, “Two 30 second injections of 50 mM glycine pH 1.7 were used to regenerate the surface.” left out

human IGF-IR-Fc fusion [11] = target: T2, human IGF-IR-Fc fusion; assay: SPR (Biacore T100), IGF-IR-Fc captured on Protein A; average over constructs; average over midscale and large scale material, with and without his tag; IGF1R
Procedure: as §3
(§5) An alternative method is to capture the IGF—IR-Fc on Protein A. This method was used for calculating the affinity and kinetics of certain versions of the construct 385A08-Fn-V2B-cys (both pegylated and non-pegylated and with or without his tag) from midscale and large scale materials. Specifically, IGF—IR-Fc was captured on Protein A immobilized on a Biacore CM5 sensor chip by amine coupling. VEGFR2-Fc was immobilized directly on a CM5 chip by amine coupling. The affinity and kinetic analysis involved the capture of IGF—IR-Fc on Protein A followed by injection of the tandem adnectin in solution over IGF—IR-Fc and VEGFR2-Fc. The analytical surface was regenerated between samples with glycine pH 1.5. Sensorgrams were obtained at each concentration and were evaluated using Biacore T100 evaluation software to determine the rate constants kₐ (kₒₙ) and kd (koff).

VEGFR2-Fc (R&D Systems) [12] = target: T3, VEGFR2-Fc (R&D Systems); assay: SPR (Biacore T100), VEGFR2-Fc immobilised directly on a CM5 chip; average over constructs; average over midscale and large scale material, with and without his tag; VEGFR2
Procedure: as §3, §4
as §2, with “VEGFR2-Fc (R&D Systems, MN) was diluted to 12 ug/mL in 50 mM Acetate pH 5.0 for an immobilization level of ˜1300 RU.” left out, “Two 30 second injections of 50 mM glycine pH 1.7 were used to regenerate the surface.” left out

human IGF-IR-Fc fusion [13] = target: T2, human IGF-IR-Fc fusion; assay: SPR (Biacore T100), IGF-IR-Fc captured on Protein A; average over constructs; average over midscale and large scale material, with and without his tag; IGF1R-Fc
Procedure: as §3, §5

B1: 385A08-Fn-V2B (non pegylated, his-tagged version) (designed binder)
chain: GVSDVPRDLEVVAATPTSLLISWSARLKVARYYRITYGETGGNSPVQEFTVPKNVYTATISGLKPGVDYTITVYAVTRFRDYQPISINYRTEIDKPSTSTSTVSDVPRDLEVVAATPTSLLISWRHPHFPTRYYRITYGETGGNSPVQEFTVPLQPPTATISGLKPGVDYTITVYAVTDGRNGRLLSIPISINYRTEIDKPSQHHHHHH
notes: also called 385A08-Fn-V2B (Ser tail); 385A08-Fn-V2B (with his tag)
B1 was tested, and the “IC50, inhibition of VEGF-A dependent proliferation of Ba/F3 cells” value [1] was 1 nM, the “IC50, inhibition of proliferation of Rh41 cells (n=1)” value (human IGF-IR on cells [2]) was 26 nM and the Kd (human IGF-IR-Fc fusion [3]) was ~0.3 nM. For the same binder, the koff (VEGFR2-Fc (R&D Systems) [4]) was 0.00045 s⁻¹, the kon (VEGFR2-Fc (R&D Systems) [4]) was 1.4e+06 M⁻¹ s⁻¹ and the Kd (VEGFR2-Fc (R&D Systems) [5]) was ~0.3 nM. The Kd (human IGF-IR-Fc fusion [6]) was ~0.02 nM, the koff (human IGF-IR-Fc fusion [6]) was 0.00017 s⁻¹ and the kon (human IGF-IR-Fc fusion [6]) was 1.1e+07 M⁻¹ s⁻¹.

B2: AT580-PEG40 (designed binder)
chain: MGVSDVPRDLEVVAATPTSLLISWSARLKVARYYRITYGETGGNSPVQEFTVPKNVYTATISGLKPGVDYTITVYAVTRFRDYQPISINYRTEIDKPCQ
modifications: 40 kDa PEG at position 98 (cysteine)
B2 was tested, and the “IC50 for inhibition of pIGF-1R activity, Western blot, HMVEC-L cells stimulated with VEGF and IGF-1” value (human IGF-IR on cells [7]) was 100 nM and the IC50 (human IGF-IR on cells [8]) was 600 nM.

B3: AT577 (designed binder)
chain: MGVSDVPRDLEVVAATPTSLLISWSARLKVARYYRITYGETGGNSPVQEFTVPKNVYTATISGLKPGVDYTITVYAVTRFRDYQPISINYRTEIDKPSQ
A Kd (human IGF-IR-Fc fusion [9]) of 0.076 nM was found for B3 in this work.

B4: pegylated version of the tandem construct 385A08-Fn-V2B-cys (with and without his tag) (designed binder)
chain: MGVSDVPRDLEVVAATPTSLLISWSARLKVARYYRITYGETGGNSPVQEFTVPKNVYTATISGLKPGVDYTITVYAVTRFRDYQPISINYRTEIDKPSTSTSTVSDVPRDLEVVAATPTSLLISWRHPHFPTRYYRITYGETGGNSPVQEFTVPLQPPTATISGLKPGVDYTITVYAVTDGRNGRLLSIPISINYRTEIDKPCQ
modifications: PEG on the single cysteine at position 203
notes: also called the various constructs tested
A koff (VEGFR2-Fc (R&D Systems) [10]) of 0.000102 s⁻¹, a kon (VEGFR2-Fc (R&D Systems) [10]) of 11500 M⁻¹ s⁻¹ and a Kd (human IGF-IR-Fc fusion [11]) of 0.84 nM were found for B4 in this work. The Kd (VEGFR2-Fc (R&D Systems) [12]) was 10.5 nM, the koff (human IGF-IR-Fc fusion [13]) was 0.000247 s⁻¹ and the kon (human IGF-IR-Fc fusion [13]) was 315000 M⁻¹ s⁻¹.
